Laboratory results published in patent publication US7183387 (Genentech, dated 2007).

T1: human FcγRIIA-R131 α subunit extracellular domain-6His-GST fusion (human, UniProt P12318 34-217)
T1 construct: also called FcγRIIA-Arg131; not shown: glutathione S-transferase (GST)
T1 sequence: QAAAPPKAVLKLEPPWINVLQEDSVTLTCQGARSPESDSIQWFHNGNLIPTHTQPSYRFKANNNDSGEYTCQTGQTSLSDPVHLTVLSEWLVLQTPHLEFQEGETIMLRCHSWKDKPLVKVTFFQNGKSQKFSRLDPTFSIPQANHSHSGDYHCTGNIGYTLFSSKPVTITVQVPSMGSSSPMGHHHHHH

T2: human FcγRIIB α subunit extracellular domain-6His-GST fusion (human, UniProt P31994 43-217)
T2 construct: not shown: glutathione S-transferase (GST)
T2 sequence: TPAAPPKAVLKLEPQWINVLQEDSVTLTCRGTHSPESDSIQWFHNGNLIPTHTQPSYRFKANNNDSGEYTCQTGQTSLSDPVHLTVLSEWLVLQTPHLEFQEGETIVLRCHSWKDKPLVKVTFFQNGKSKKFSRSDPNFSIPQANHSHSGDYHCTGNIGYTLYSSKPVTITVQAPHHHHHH

T3: human FcγRIIA-H131 α subunit extracellular domain-His6-GST fusion protein (human, UniProt P12318 34-217)
T3 construct: also called FcγRIIA-His131; not shown: glutathione S-transferase (GST)
T3 sequence: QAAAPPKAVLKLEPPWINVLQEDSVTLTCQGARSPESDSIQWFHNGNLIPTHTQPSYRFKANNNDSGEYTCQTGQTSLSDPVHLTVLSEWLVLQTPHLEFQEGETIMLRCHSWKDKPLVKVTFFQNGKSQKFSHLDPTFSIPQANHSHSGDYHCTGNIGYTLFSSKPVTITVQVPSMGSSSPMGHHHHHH

T4: human FcγRIIA-H131 α subunit extracellular domain-His6-GST fusion (human, UniProt P12318 34-217)
T4 construct: ECD-6His-GST fusion made in 293 cells; also called FcγRIIA-His131; not shown: glutathione S transferase (GST)
T4 sequence: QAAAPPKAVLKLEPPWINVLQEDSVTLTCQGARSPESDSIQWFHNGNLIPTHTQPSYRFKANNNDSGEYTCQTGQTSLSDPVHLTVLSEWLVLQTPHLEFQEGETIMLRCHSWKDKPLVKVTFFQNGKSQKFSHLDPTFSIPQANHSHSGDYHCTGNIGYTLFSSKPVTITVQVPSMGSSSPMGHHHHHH

T5: human FcγRIIA-R131 α subunit extracellular domain-His6-GST fusion (human, UniProt P12318 34-217)
T5 construct: ECD-6His-GST fusion made in 293 cells; also called FcγRIIA-Arg131; not shown: glutathione S transferase (GST)
T5 sequence: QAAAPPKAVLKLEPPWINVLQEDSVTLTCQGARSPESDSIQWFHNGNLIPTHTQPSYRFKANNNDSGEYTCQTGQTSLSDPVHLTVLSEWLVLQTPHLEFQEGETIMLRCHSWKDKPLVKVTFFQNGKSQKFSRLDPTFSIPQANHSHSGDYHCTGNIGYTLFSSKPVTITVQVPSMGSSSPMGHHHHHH


Tests used:
[1] = target: T1, human FcγRIIA-R131 α subunit …; test: ELISA, IgG:IgE hexamers on receptor-GST
[2] = target: T6, human FcγRIIIA-F158 α subunit extracellular domain-6His-GST fusion (human, UniProt P08637 17-208); test: ELISA, IgG:IgE hexamers on receptor-GST
T6 construct: also called FcγRIIIA-Phe158; not shown: glutathione S-transferase (GST)

[3] = target: T2, human FcγRIIB α subunit extracellular …; test: ELISA, IgG:IgE hexamers on receptor-GST
[4] = target: T3, human FcγRIIA-H131 α subunit …; test: ELISA; binding ratio on FcγRIIA-H131 divided by that on FcγRIIA-R131
[5] = target: T3, human FcγRIIA-H131 α subunit …; test: ELISA, IgG:IgE hexamer on coated FcγRIIA-H131-GST
[6] = target: T4, human FcγRIIA-H131 α subunit …; test: ELISA, IgG complex, receptor coated
[7] = target: T7, human FcγRIIIA-F158 α subunit extracellular domain-His6-GST fusion (human, UniProt P08637 17-208); test: ELISA, IgG complex, receptor coated
T7 construct: ECD-6His-GST fusion made in 293 cells; also called FcγRIIIA-Phe158; not shown: glutathione S transferase (GST)

[8] = target: T5, human FcγRIIA-R131 α subunit …; test: ELISA, IgG complex, receptor coated

T6 sequence (P08637 other isoform, or with tags, fused parts or gaps, form in doubt): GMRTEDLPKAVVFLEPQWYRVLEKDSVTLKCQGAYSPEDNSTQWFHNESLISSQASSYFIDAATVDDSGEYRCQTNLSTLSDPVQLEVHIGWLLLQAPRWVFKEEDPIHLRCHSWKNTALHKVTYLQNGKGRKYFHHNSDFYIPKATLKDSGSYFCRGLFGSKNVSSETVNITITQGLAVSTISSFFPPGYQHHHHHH
T7 sequence (P08637 other isoform, or with tags, fused parts or gaps, form in doubt): as above

Binder | ratio to native IgG1 [1] | ratio to native IgG1 [2] | ratio to native IgG1 [3] | H131/R131 [4] | ratio of binding of the variant to that of native IgG1 [5] | ratio of binding, variant/native IgG1 (mean) [6] | ratio of binding, variant/native IgG1 (mean) [7] | ratio of binding, variant/native IgG1 (mean) [8]
E27 IgG1 variant S267(280)A/H268(281)A (antibody, also called IG2 96) heavy: not shown light: DIQLTQSPSSLSASVGDRVTITCRASKPVDGEGDSYLNWYQQKPGKAPKLLIYAASYLESGVPSRFSGSGSGTDFTLTISSLQPEDFATYYCQQSHEDPYTFGQGTKVEIKRTVAAPSVFIFPPSDEQLKSGTASVVCLLNNFYPREAKVQWKVDNALQSGNSQESVTEQDSKDSTYSLSSTLTLSKADYEKHKVYACEVTHQGLSSPVTKSFNRGEC | 1.41 | 0.96 | 1.56 |  |  |  |  | 
E27 IgG1 variant T256(269)A/S298(317)A (antibody, also called IG2 1059) heavy: not shown light: DIQLTQSPSSLSASVGDRVTITCRASKPVDGEGDSYLNWYQQKPGKAPKLLIYAASYLESGVPSRFSGSGSGTDFTLTISSLQPEDFATYYCQQSHEDPYTFGQGTKVEIKRTVAAPSVFIFPPSDEQLKSGTASVVCLLNNFYPREAKVQWKVDNALQSGNSQESVTEQDSKDSTYSLSSTLTLSKADYEKHKVYACEVTHQGLSSPVTKSFNRGEC | 0.44 | 1.41 | 0.22 |  |  |  |  | 
E27 IgG1 variant T256(269)A/D280(295)A/R292(309)A/S298(317)A/T307(326)A (antibody) heavy: EVQLVESGGGLVQPGGSLRLSCAVSGYSITSGYSWNWIRQAPGKGLEWVASIKYSGETKYNPSVKGRITISRDDSKNTFYLQMNSLRAEDTAVYYCARGSHYFGHWHFAVWGQGTLVTVSSASTKGPSVFPLAPSSKSTSGGTAALGCLVKDYFPEPVTVSWNSGALTSGVHTFPAVLQSSGLYSLSSVVTVPSSSLGTQTYICNVNHKPSNTKVDKKVEPKSCDKTHTCPPCPAPELLGGPSVFLFPPKPKDTLMISRAPEVTCVVVDVSHEDPEVKFNWYVAGVEVHNAKTKPAEEQYNATYRVVSVLAVLHQDWLNGKEYKCKVSNKALPAPIEKTISKAKGQPREPQVYTLPPSREEMTKNQVSLTCLVKGFYPSDIAVEWESNGQPENNYKTTPPVLDSDGSFFLYSKLTVDKSRWQQGNVFSCSVMHEALHNHYTQKSLSLSPGK light: DIQLTQSPSSLSASVGDRVTITCRASKPVDGEGDSYLNWYQQKPGKAPKLLIYAASYLESGVPSRFSGSGSGTDFTLTISSLQPEDFATYYCQQSHEDPYTFGQGTKVEIKRTVAAPSVFIFPPSDEQLKSGTASVVCLLNNFYPREAKVQWKVDNALQSGNSQESVTEQDSKDSTYSLSSTLTLSKADYEKHKVYACEVTHQGLSSPVTKSFNRGEC | 0.11 | 0.9 | 0.08 |  |  |  |  | 
E27 IgG1 variant S298(317)A/E333(352)A/K334(353)A (antibody, also called IG2 110) heavy: EVQLVESGGGLVQPGGSLRLSCAVSGYSITSGYSWNWIRQAPGKGLEWVASIKYSGETKYNPSVKGRITISRDDSKNTFYLQMNSLRAEDTAVYYCARGSHYFGHWHFAVWGQGTLVTVSSASTKGPSVFPLAPSSKSTSGGTAALGCLVKDYFPEPVTVSWNSGALTSGVHTFPAVLQSSGLYSLSSVVTVPSSSLGTQTYICNVNHKPSNTKVDKKVEPKSCDKTHTCPPCPAPELLGGPSVFLFPPKPKDTLMISRTPEVTCVVVDVSHEDPEVKFNWYVDGVEVHNAKTKPREEQYNATYRVVSVLTVLHQDWLNGKEYKCKVSNKALPAPIAATISKAKGQPREPQVYTLPPSREEMTKNQVSLTCLVKGFYPSDIAVEWESNGQPENNYKTTPPVLDSDGSFFLYSKLTVDKSRWQQGNVFSCSVMHEALHNHYTQKSLSLSPGK light: DIQLTQSPSSLSASVGDRVTITCRASKPVDGEGDSYLNWYQQKPGKAPKLLIYAASYLESGVPSRFSGSGSGTDFTLTISSLQPEDFATYYCQQSHEDPYTFGQGTKVEIKRTVAAPSVFIFPPSDEQLKSGTASVVCLLNNFYPREAKVQWKVDNALQSGNSQESVTEQDSKDSTYSLSSTLTLSKADYEKHKVYACEVTHQGLSSPVTKSFNRGEC | 0.34 | 1.51 | 0.15 |  |  |  |  | 
anti-IgE E27 IgG1 variant Asp270Ala (antibody, also called D270(283)A; D283A) heavy: not shown light: DIQLTQSPSSLSASVGDRVTITCRASKPVDGEGDSYLNWYQQKPGKAPKLLIYAASYLESGVPSRFSGSGSGTDFTLTISSLQPEDFATYYCQQSHEDPYTFGQGTKVEIKRTVAAPSVFIFPPSDEQLKSGTASVVCLLNNFYPREAKVQWKVDNALQSGNSQESVTEQDSKDSTYSLSSTLTLSKADYEKHKVYACEVTHQGLSSPVTKSFNRGEC |  |  |  | 16.6 ratio (H131 value/R131 value) | 0.45 ratio (variant/native IgG1) |  |  | 
E27 IgG1 variant T256(269)A/D280(295)A/S298(317)A/T307(326)A (antibody, also called IG2 1051) heavy: EVQLVESGGGLVQPGGSLRLSCAVSGYSITSGYSWNWIRQAPGKGLEWVASIKYSGETKYNPSVKGRITISRDDSKNTFYLQMNSLRAEDTAVYYCARGSHYFGHWHFAVWGQGTLVTVSSASTKGPSVFPLAPSSKSTSGGTAALGCLVKDYFPEPVTVSWNSGALTSGVHTFPAVLQSSGLYSLSSVVTVPSSSLGTQTYICNVNHKPSNTKVDKKVEPKSCDKTHTCPPCPAPELLGGPSVFLFPPKPKDTLMISRAPEVTCVVVDVSHEDPEVKFNWYVAGVEVHNAKTKPREEQYNATYRVVSVLAVLHQDWLNGKEYKCKVSNKALPAPIEKTISKAKGQPREPQVYTLPPSREEMTKNQVSLTCLVKGFYPSDIAVEWESNGQPENNYKTTPPVLDSDGSFFLYSKLTVDKSRWQQGNVFSCSVMHEALHNHYTQKSLSLSPGK light: DIQLTQSPSSLSASVGDRVTITCRASKPVDGEGDSYLNWYQQKPGKAPKLLIYAASYLESGVPSRFSGSGSGTDFTLTISSLQPEDFATYYCQQSHEDPYTFGQGTKVEIKRTVAAPSVFIFPPSDEQLKSGTASVVCLLNNFYPREAKVQWKVDNALQSGNSQESVTEQDSKDSTYSLSSTLTLSKADYEKHKVYACEVTHQGLSSPVTKSFNRGEC | 0.47 | 1.21 | 0.3 |  |  |  |  | 
E27 IgG1 variant S298(317)A/K334(353)A (antibody) heavy: not shown light: DIQLTQSPSSLSASVGDRVTITCRASKPVDGEGDSYLNWYQQKPGKAPKLLIYAASYLESGVPSRFSGSGSGTDFTLTISSLQPEDFATYYCQQSHEDPYTFGQGTKVEIKRTVAAPSVFIFPPSDEQLKSGTASVVCLLNNFYPREAKVQWKVDNALQSGNSQESVTEQDSKDSTYSLSSTLTLSKADYEKHKVYACEVTHQGLSSPVTKSFNRGEC | 0.41 | 1.62 | 0.19 |  |  |  |  | 
E27 IgG1 variant S298(317)A/E333(352)A (antibody) heavy: not shown light: DIQLTQSPSSLSASVGDRVTITCRASKPVDGEGDSYLNWYQQKPGKAPKLLIYAASYLESGVPSRFSGSGSGTDFTLTISSLQPEDFATYYCQQSHEDPYTFGQGTKVEIKRTVAAPSVFIFPPSDEQLKSGTASVVCLLNNFYPREAKVQWKVDNALQSGNSQESVTEQDSKDSTYSLSSTLTLSKADYEKHKVYACEVTHQGLSSPVTKSFNRGEC | 0.34 | 1.53 | 0.16 |  |  |  |  | 
E27 IgG1 variant S267(280)A/R255(268)A (antibody, also called IG2 247) heavy: not shown light: DIQLTQSPSSLSASVGDRVTITCRASKPVDGEGDSYLNWYQQKPGKAPKLLIYAASYLESGVPSRFSGSGSGTDFTLTISSLQPEDFATYYCQQSHEDPYTFGQGTKVEIKRTVAAPSVFIFPPSDEQLKSGTASVVCLLNNFYPREAKVQWKVDNALQSGNSQESVTEQDSKDSTYSLSSTLTLSKADYEKHKVYACEVTHQGLSSPVTKSFNRGEC | 1.6 | 0.88 | 1.72 |  |  |  |  | 
anti-IgE E27 IgG1 variant H268(281)A (antibody, Fc variant of E27; also called IG2 16; G16) heavy: not shown light: DIQLTQSPSSLSASVGDRVTITCRASKPVDGEGDSYLNWYQQKPGKAPKLLIYAASYLESGVPSRFSGSGSGTDFTLTISSLQPEDFATYYCQQSHEDPYTFGQGTKVEIKRTVAAPSVFIFPPSDEQLKSGTASVVCLLNNFYPREAKVQWKVDNALQSGNSQESVTEQDSKDSTYSLSSTLTLSKADYEKHKVYACEVTHQGLSSPVTKSFNRGEC |  |  |  |  |  | 1.09 ratio | 0.52 ratio | 1.22 ratio
